Tests used:
Assay in all cases: SPR (Biacore), fusion protein captured on chip, human apical domain TfR injected, steady-state fit
ETV:GAA Fusion 3 = biological target: T1, ETV:GAA Fusion 3 (human, UniProt P0DOX5 223-449 = IgG part)
T1 construct: Heterodimer of the two chains; also called C-terminal monozyme GAA-Fc fusion protein
Procedure: (§1) To determine whether GAA-Fc fusion proteins with engineered TfR binding affects the ability of the modified Fc domain to interact with human TfR, the affinity of ETV:GAA fusion proteins (Example 1) for human TfR was assessed using a Biacore™ surface plasmon resonance assay. Biacore™ Series S CM5 sensor chips were immobilized with anti-human Fab (human Fab capture kit from GE Healthcare). Five (5) μg/mL of the GAA-Fc fusion proteins were captured for 1 minute on each flow cell and serial 3-fold dilutions of human apical domain TfR were injected at a flow rate of 30 μL/min. Each sample was analyzed with a 3-minute association and a 3-minute dissociation. After each injection, the chip was regenerated using 10 mM glycine-HCl (pH 2.1). Binding response was corrected by subtracting the RU from a flow cell capturing an irrelevant IgG at similar density. Steady-state affinities were obtained by fitting the response at equilibrium against the concentration using Biacore™ T200 Evaluation Software v3.1.

ETV:GAA Fusion 1 = biological target: T2, ETV:GAA Fusion 1 (human, UniProt P0DOX5 223-449 = IgG part)
T2 construct: Heterodimer of the two chains; also called N-terminal monozyme GAA-Fc fusion protein
Procedure: as §1

ETV:GAA Fusion 2 = biological target: T3, ETV:GAA Fusion 2 (human, UniProt P0DOX5 223-449 = IgG part)
T3 construct: Heterodimer of the two chains; also called N-terminal monozyme GAA-Fc fusion protein
Procedure: as §1

ETV:GAA Fusion 4 = biological target: T4, ETV:GAA Fusion 4 (human, UniProt P0DOX5 223-449 = IgG part)
T4 construct: Heterodimer of the two chains; also called C-terminal monozyme GAA-Fc fusion protein
Procedure: as §1

- Kd (ETV:GAA Fusion 3): 282 nM
- Kd (ETV:GAA Fusion 1): 251 nM
- Kd (ETV:GAA Fusion 2): 260 nM
- Kd (ETV:GAA Fusion 4): 271 nM
B1: human apical domain TfR (receptor)
chain: NSVIIVDKNGRLVYLVENPGGYVAYSKAATVTGKLVHANFGTKKDFEDLYTPVNGSIVIVRAGKITFAEKVANAESLNAIGVLIYMDQTKFPIVNAELSFFGHAHLGTGDPYTPGFPSFNHTQFPPSRSSGLPNIPVQTISRAAAEKLFGNMEGDCPSDWKTDSTCRMVTSESKNVKLTVS
notes: also called human TfR; huTfR

Source: patent US20250250555A1 (DENALI THERAPEUTICS, published 2025)
